Reference: patent publication US7910100B2, “Antibodies directed to the mammalian EAG1 ion channel protein” (Max-Planck-Gesellschaft zur Forderung der Wissen, priority 2004, dated 2011)

System: IPC-298 melanoma cells
Assay: IPC-298 cell proliferation with secondary immunotoxin Mab-ZAP
Format: cell-based, human
Settings: in combination with secondary immunotoxin Mab-ZAP (100 ng/well), 72 hours
Description: In order to evaluate the specific suitability and efficacy of anti-Eag1 monoclonal antibodies for conjugation as primary immunotoxin, in vitro cell proliferation assays were performed in the presence of anti-Eag1 antibody in conjunction with a secondary antibody conjugated to saporin, a ribosome-inactivating protein from the seeds of the plant Saponaria officinalis. The secondary immunotoxin binds to the anti-Eag1 antibody is internalized into the cell alongside the primary antibody. Once the immunotoxin is internalised, saporin breaks away from the targeting agent and inactivates the ribosomes, which causes protein inhibition and, ultimately, cell death.
For the assay (FIG. 8a) 3000 IPC-298 cells were seeded in 60 μl/well FCS-containing medium on 96-well plates overnight. 100 ng/well (1 ng/μl) Mab-ZAP was mixed with 10 ng/μl of mouse monoclonal anti-Eag1 antibodies ImAb1 or ImAb4 in 40 μl FCS-containing medium for 1 h at 37° C. and then directly added to the cells in quadruplicates. […] The quantity of formazan product was measured by the amount of 490 nm absorbance using an ELISA plate reader.
For the assay shown in FIG. 8b 3000 IPC-298 cells were seeded in 60 μl/well FCS-containing medium on 96-well plates overnight. […] Absorbance was measured using a spectrofluorometer at 590 nm every 30 min.

B1: ImAb4: mouse monoclonal anti-Eag1 antibody, IgG2b kappa; light chain SEQ ID NO: 2, heavy chain SEQ ID NO: 4 (antibody, listed as Mus musculus)
heavy: MRVLILLWLFTAFPGILSDVQLQESGPGLVKPSQSLSLTCTVTGYSITSDYAWNWIRQFPGNKLEWMGYISYSGSTIYNPSLKSRISITRDTSKNQFFLQLNSVTTEDTATYYCARFGNYGNTLNYWGQGTSVTVSSAKTTPPSVYPLAPGCGDTTGSSVTLGCLVKGYFPESVTVTWNSGSLSSSVHTFPALLQSGLYTMSSSVTVPSSTWPSQTVTCSVAHPASSTTVDKKLEPSGPISTINPCPPCKECHKCPAPNLEGGPSVFIFPPNIKDVLMISLTPKVTCVVVDVSEDDPDVQISWFVNNVEVHTAQTQTHREDYNSTIRVVSTLPIQHQDWMSGKEFKCKVNNKDLPSPIERTISKIKGLVRAPQVYILPPPAEQLSRKDVSLTCLVVGFNPGDISVEWTSNGHTEENYKDTAPVLDSDGSYFIYSKLNMKTSKWEKTDSFSCNVRHEGLKNYYLKKTISRSPGK
light: MKLPVRLLVLMFWIPASSSDVVMTQTPLSLPVSLGDQASISCRSSQSLVHSNGNTYLHWYLQKPGQSPKLLIYKVSNRFSGVPDRFSGSGSGTDFTLKISRVEAEDLGVYFCSQSTHVPPTFGGGTKLEIKRADAAPTVSIFPPSSEQLTSGGASVVCFLNNFYPKDINVKWKIDGSERQNGVLNSWTDQDSKDSTYSMSSTLTLTKDEYERHNSYTCEATHKTSTSPIVKSFNRNEC
  inhibition of cell proliferation: inhibition of IPC-298 melanoma cell proliferation
